Reference: paper PMC8823246 (Journal for Immunotherapy of Cancer, 2022)

Target: T1, recombinant human VISTA-Fc protein (human, UniProt Q9H7M9 33-194)
T1 sequence (looked up): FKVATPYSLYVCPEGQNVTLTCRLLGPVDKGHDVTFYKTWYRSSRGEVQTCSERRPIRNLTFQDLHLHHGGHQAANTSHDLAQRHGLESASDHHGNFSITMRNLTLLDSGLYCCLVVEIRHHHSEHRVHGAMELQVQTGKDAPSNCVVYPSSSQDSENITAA
Assay: ELISA

B1: recombinant human VSIG3-Fc (Fc fusion, UniProt Q5DX21 23-241, looked up)
chain: LEVSESPGSIQVARGQPAVLPCTFTTSAALINLNVIWMVTPLSNANQPEQVILYQGGQMFDGAPRFHGRVGFTGTMPATNVSIFINNTQLSDTGTYQCLVNNLPDIGGRNIGVTGLTVLVPPSAPHCQIQGSQDIGSDVILLCSSEEGIPRPTYLWEKLDNTLKLPPTATQDQVQGTVTIRNISALSSGLYQCVASNAIGTSTCLLDLQVISPQPRNIG
modifications: biotin (biotinylated using Invitrogen kit #21455) in the inhibition assay
In the case of B1, the EC50 is reported as 24 nM.
